Laboratory results as given in PMC5924885 (Proceedings of the National Academy of Sciences of the …, 2018).

Biological target: Akt1 kinase domain (Akt1^KD) (human, UniProt P31749 144-472, exclusively monophosphorylated, predominantly in the turn motif (T450))
Test: fluorescence polarisation

Akt1 kinase domain (Akt1^KD), sequence (P31749 144-472): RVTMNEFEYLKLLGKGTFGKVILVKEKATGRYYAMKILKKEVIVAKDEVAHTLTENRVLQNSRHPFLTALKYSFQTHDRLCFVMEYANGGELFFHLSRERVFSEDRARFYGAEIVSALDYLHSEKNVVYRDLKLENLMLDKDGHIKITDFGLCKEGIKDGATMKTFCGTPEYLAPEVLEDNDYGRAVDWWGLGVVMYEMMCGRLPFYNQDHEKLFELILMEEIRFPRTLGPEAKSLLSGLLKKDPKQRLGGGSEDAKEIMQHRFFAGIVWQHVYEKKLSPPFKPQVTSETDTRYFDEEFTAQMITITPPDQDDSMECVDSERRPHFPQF

- Kd: 7 µM
B1: Atto488-labeled Akt1 PH domain (Akt1^1-120 T101C) (domain or fragment, human, UniProt P31749 1-120, looked up)
chain: MSDVAIVKEGWLHKRGEYIKTWRPRYFLLKNDGTFIGYKERPQDVDQREAPLNNFSVAQCQLMKTERPRPNTFIIRCLQWTTVIERTFHVETPEEREEWTCAIQTVADGLKKQEEEEMDF
modifications: Atto488 (maleimide) label, about 50% labeling efficiency
